Data on four molecules can be found in patent US12703750 (NORTHWESTERN UNIVERSITY, dated 2026).

Experiment [1] concerns the target T1, Human IL13Rα2 (human, UniProt Q14627 27-343, limits assumed).
T1 construct: also called human recombinant IL13Rα2; Human IL13Ra2
T1 sequence (looked up): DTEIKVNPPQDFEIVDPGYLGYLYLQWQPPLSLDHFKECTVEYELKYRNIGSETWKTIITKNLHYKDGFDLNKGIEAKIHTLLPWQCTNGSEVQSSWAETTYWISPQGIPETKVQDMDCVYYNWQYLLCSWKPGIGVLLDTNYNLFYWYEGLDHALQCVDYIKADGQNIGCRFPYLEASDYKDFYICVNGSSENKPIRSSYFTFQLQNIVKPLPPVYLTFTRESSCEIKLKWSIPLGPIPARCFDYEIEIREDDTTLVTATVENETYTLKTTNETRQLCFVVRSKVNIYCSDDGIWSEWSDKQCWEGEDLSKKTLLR
Briefly: SPR Biacore 8K affinity ranking, antibody supernatant Fc-captured, 100 nM IL13Rα2 analyte.

The target of experiment [2] is T1, Human IL13Rα2. Briefly: SPR Biacore T200, purified IgG Fc-captured, IL13Rα2 as analyte.
Experiment [3] has as its target T1, Human IL13Rα2. Briefly: plate ELISA on human recombinant IL13Rα2, OD405, N=3.
For experiment [4], the target named is T1, Human IL13Rα2. Briefly: plate ELISA on human IL13Rα2, OD405, N=4 [continued) B].
In experiment [5] the target is T1, Human IL13Rα2. Nature of the experiment: plate ELISA on human recombinant IL13Rα2, OD405, N=4.
Experiment [6] concerns the target T1, Human IL13Rα2. Briefly: SPR Biacore T200, antibody captured, IL13Rα2 analyte 0.9375-60 nM.
Experiment [7] concerns the target T1, Human IL13Rα2. Nature of the experiment: SPR Biacore T200, 25 C, antibody captured on Protein A chip, IL13Ra2 analyte 0.625-80 nM.
Experiment [8] addresses T1, Human IL13Rα2. Briefly: SPR Biacore T200, antibody Fc-captured, IL13Rα2 as analyte.
The target of experiment [9] is T2, human recombinant IL13Rα2hFc (cat #7147-IR-100, R&D Systems) (human, UniProt Q14627 27-343).
T2 construct: Bought; also called recombinant human IL13Ra2; not shown: human Fc ('hFc') of the bought fusion protein
T2 sequence (looked up): T1 sequence (looked up)
Nature of the experiment: plate ELISA on coated IL13Rα2hFc (1 µg/mL), detection with anti-6xHis-HRP, OD450 [continued) D].

Changes are numbered by the printed parent chain. In names and notes the source's numbering stands.

B1: Humanized antibody VH1 + VL1 (antibody, human IgG1, kappa, V domains shown)
VH: QVQLVQSGAEVKKPGSSVKVSCKASGYTFSNYLMNWVRQAPGQGLEWMGRIDPYDGDIDYNQNFKDRVTITADKSTSTAYMELSSLRSEDTAVYYCARGYGTAYGVDYWGQGTLVTVSS
VL: DIVMTQSPDSLAVSLGERATINCRASESVDNYGISFMNWYQQKPGQPPKLLIYAASRQGSGVPDRFSGSGSGTDFTLTISSLQAEDVAVYYCQQSKEVPWTFGGGTKLEIKR
notes: also called Humanized VH1-VL1; U3621EI120 VH1+VL1
For the molecule B1, the Kd with Human IL13Rα2 [1] was 0.768 nM; in the experiment with Human IL13Rα2 [2] it was 0.283 nM; with Human IL13Rα2 [6], 0.257 nM. Moreover, the results for the koff with Human IL13Rα2 [1], with Human IL13Rα2 [2] and with Human IL13Rα2 [6] were 0.000329 s⁻¹, 0.000191 s⁻¹ and 0.00019 s⁻¹, respectively. Further, the kon turned out to be 429000 M⁻¹ s⁻¹ with Human IL13Rα2 [1], 676000 M⁻¹ s⁻¹ with Human IL13Rα2 [2] and 740000 M⁻¹ s⁻¹ in the experiment with Human IL13Rα2 [6]. The “EC50 (read off the curve)” value in the experiment with Human IL13Rα2 [3] is approximately 0.02 µg/mL; with Human IL13Rα2 [4], approximately 0.05 µg/mL; with Human IL13Rα2 [5], approximately 0.02 µg/mL.

B2: Ab Vh1-VL1W100F (antibody, human IgG1, kappa, V domains shown)
VH: B1 VH
VL: B1 VL with W100F
notes: also called single mutant W100F
In the experiment with Human IL13Rα2 [7], B2 registered a Kd of 0.326 nM, a koff of 0.000334 s⁻¹ and a kon of 1.03e+06 M⁻¹ s⁻¹. Besides, the concentration giving a half-maximal response (EC50 (read off the curve)) in the experiment with Human IL13Rα2 [4] is approximately 0.03 µg/mL. For the same molecule, the “EC50 (read off the curve)” value in the experiment with Human IL13Rα2 [5] is approximately 0.03 µg/mL.

B3: Chimeric antibody (VH and VL of murine Ab clone 47 in human constant regions) (antibody, V domains shown)
VH: QVQLQQPGAELVRPGASVKLSCKASGYTFSNYLMNWVKQRPEQDLDWIGRIDPYDGDIDYNQNFKDKAILTVDKSSSTAYMQLSSLTSEDSAVYYCARGYGTAYGVDYWGQGTSVTVSS
VL: not shown
notes: Full-length IgG, murine variable regions with human constant regions; also called chimeric IgG; Chimeric Ab
On to B3, for which the Kd with Human IL13Rα2 [1] worked out at 1.07 nM; in the experiment with Human IL13Rα2 [2], 1.45 nM; in the experiment with Human IL13Rα2 [8] it was 1.44 nM. Moreover, the koff is 0.000544 s⁻¹ with Human IL13Rα2 [1], 0.000477 s⁻¹ in the experiment with Human IL13Rα2 [2] and 0.000523 s⁻¹ in the experiment with Human IL13Rα2 [8]. For the same molecule, the on-rate (kon) stood at 511000 M⁻¹ s⁻¹ in the experiment with Human IL13Rα2 [1], 330000 M⁻¹ s⁻¹ with Human IL13Rα2 [2] and 363000 M⁻¹ s⁻¹ with Human IL13Rα2 [8]. Moreover, the “EC50 (read off the curve)” value with Human IL13Rα2 [3] was approximately 0.03 µg/mL.

B4: Murine version of the BTE (scFv of anti-CD3 Okt3 and scFv of the murine anti-IL13Rα2 antibody) (bispecific antibody, V domains shown, not shown: small tags and cut ends)
VH: B3 VH
VL: not shown
notes: Control BTE; also called Okt3BTE; chimeric BTE using the mouse monoclonal Ab VH and VL domains
As to B4, in [9], the “EC50 (read off the curve)” value is approximately 0.5 µg/mL.
